Results: US9618524B2, “Method, composition, isolation and identification of a plaque particle and related biomarker” (Plaxgen Inc., priority 2012, dated 2017)

B1: Immunoglobulin lambda-like polypeptide 1 (protein)
chain: LLRPTAASQSRALGPGAPGGSSRSSLRSRWGRFLLQRGSWTGPRCWPRGFQSKHNSVTHVFGSGTQLTVLSQPKATPSVTLFPPSSEELQANKATLVCLMNDFYPGILTVTWKADGTPITQGVEMTTPSKQSNNKYAASSYLSLTPEQWRSRRSYSCQVMHEGSTVEKTVAPAECS
B2: Cluster of Keratin, type II cytoskeletal 2 epidermal (protein, UniProt P35908 1-639, looked up)
Keratin, type II cytoskeletal …: MSCQISCKSRGRGGGGGGFRGFSSGSAVVSGGSRRSTSSFSCLSRHGGGGGGFGGGGFGSRSLVGLGGTKSISISVAGGGGGFGAAGGFGGRGGGFGGGSSFGGGSGFSGGGFGGGGFGGGRFGGFGGPGGVGGLGGPGGFGPGGYPGGIHEVSVNQSLLQPLNVKVDPEIQNVKAQEREQIKTLNNKFASFIDKVRFLEQQNQVLQTKWELLQQMNVGTRPINLEPIFQGYIDSLKRYLDGLTAERTSQNSELNNMQDLVEDYKKKYEDEINKRTAAENDFVTLKKDVDNAYMIKVELQSKVDLLNQEIEFLKVLYDAEISQIHQSVTDTNVILSMDNSRNLDLDSIIAEVKAQYEEIAQRSKEEAEALYHSKYEELQVTVGRHGDSLKEIKIEISELNRVIQRLQGEIAHVKKQCKNVQDAIADAEQRGEHALKDARNKLNDLEEALQQAKEDLARLLRDYQELMNVKLALDVEIATYRKLLEGEECRMSGDLSSNVTVSVTSSTISSNVASKAAFGGSGGRGSSSGGGYSSGSSSYGSGGRQSGSRGGSGGGGSISGGGYGSGGGSGGRYGSGGGSKGGSISGGGYGSGGGKHSSGGGSRGGSSSGGGYGSGGGGSSSVKGSSGEAFGSSVTFSFR
B3: Serpin B3 (protein)
chain: MNSLSEANTKFMFDLFQQFRKSKENNIFYSPISITSALGMVLLGAKDNTAQQIKKVLHFDQVTENTTGKAATYHVDRSGNVHHQFQKLLTEFNKSTDAYELKIANKLFGEKTYLFLQEYLDAIKKFYQTSVESVDFANAPEESRKKINSWVESQTNEKIKNLIPEGNIGSNTTLVLVNAIYFKGQWEKKFNKEDTKEEKFWPNKNTYKSIQMMRQYTSFHFASLEDVQAKVLEIPYKGKDLSMIVLLPNEIDGLQKLEEKLTAEKLMEWTSLQNMRETRVDLHLPRFKVEESYDLKDTLRTMGMVDIFNGDADLSGMTGSRGLVLSGVLHKAFVEVTEEGAEAAAATAVVGFGSSPTSTNEEFHCNHPFLFFIRQNKTNSILFYGRFSSP
B4: Ig heavy chain V-I region HG3 (protein)
chain: QVQLVQSGAEVKKPGASVKVSCKASGYTFTSYYMHWVRQAPGQGLEWMGIINPSGGSTSYAQKFQGRVTMTRDTSTSTVYMELSSLRSEDTAVYYCAR
B5: Galectin-3-binding protein (protein)
chain: VNDGDMRLADGGATNQGRVEIFYRGQWGTVCDNLWDLTDASVVCRALGFENATQALGRAAFGQGSGPIMLDEVQCTGTEASLADCKSLGWLKSNCRHERDAGVVCTNETRSTHTLDLSRELSEALGQIFDSQRGCDLSISVNVQGEDALGFCGHTVILTANLEAQALWKEPGSNVTMSVDAECVPMVRDLLRYFYSRRIDITLSSVKCFHKLASAYGARQLQGYCASLFAILLPQDPSFQMPLDLYAYAVATGDALLEKLCLQFLAWNFEALTQAEAWPSVPTDLLQLLLPRSDLAVPSELALLKAVDTWSWGERASHEEVEGLVEKIRFPMMLPEELFELQFNLSLYWSHEALFQKKTLQALEFHTVPFQLLARYKGLNLTEDTYKPRIYTSPTWSAFVTDSSWSARKSQLVYQSRRGPLVKYSSDYFQAPSDYRYYPYQSFQTPQHPSFLFQDKRVSWSLVYLPTIQSCWNYGFSCSSDELPVLGLTKSGGSDRTIAYENKALMLCEGLFVADVTDFEGWKAAIPSALDTNSSKSTSSFPCPAGHFNGFRTVIRPFYLTNSSGVD
B6: Apolipoprotein F (protein)
chain: SLPTEDCENEKEQAVHNVVQLLPGVGTFYNLGTALYYATQNCLGKARERGRDGAIDLGYDLLMTMAGMSGGPMGLAISAALKPALRSGVQQLIQYYQDQKDANISQPETTKEGLRAISDVSDLEETTTLASFISEVVSSAPYWGWAIIKSYDLDPGAGSLEI
B7: Heterogeneous nuclear ribonucleoprotein R (protein)
chain: ANQVNGNAVQLKEEEEPMDTSSVTHTEHYKTLIEAGLPQKVAERLDEIFQTGLVAYVDLDERAIDALREFNEEGALSVLQQFKESDLSHVQNKSAFLCGVMKTYRQREKQGSKVQESTKGPDEAKIKALLERTGYTLDVTTGQRKYGGPPPDSVYSGVQPGIGTEVFVGKIPRDLYEDELVPLFEKAGPIWDLRLMMDPLSGQNRGYAFITFCGKEAAQEAVKLCDSYEIRPGKHLGVCISVANNRLFVGSIPKNKTKENILEEFSKVTEGLVDVILYHQPDDKKKNRGFCFLEYEDHKSAAQARRRLMSGKVKVWGNVVTVEWADPVEEPDPEVMAKVKVLFVRNLATTVTEEILEKSFSEFGKLERVKKLKDYAFVHFEDRGAAVKAMDEMNGKEIEGEEIEIVLAKPPDKKRKERQAARQASRSTAYEDYYYHPPPRMPPPIRGRGRGGGRGGYGYPPDYYGYEDYYDDYYGYDYHDYRGGYEDPYYGYDDGYAVRGRGGGRGGRGAPPPPRGRGAPPPRGRAGYSQRGAPLGPPRGSRGGRGGPAQQQRGRGSRGSRGNRGGNVGGKRKADGYNQPDSKRRQTNNQQNWGSQPIAQQPLQQGGDYSGNYGYNNDNQEFYQDTYGQQWK
B8: Complement factor H-related protein 1 (protein)
chain: EATFCDFPKINHGILYDEEKYKPFSQVPTGEVFYYSCEYNFVSPSKSFWTRITCTEEGWSPTPKCLRLCFFPFVENGHSESSGQTHLEGDTVQIICNTGYRLQNNENNISCVERGWSTPPKCRSTDTSCVNPPTVQNAHILSRQMSKYPSGERVRYECRSPYEMFGDEEVMCLNGNWTEPPQCKDSTGKCGPPPPIDNGDITSFPLSVYAPASSVEYQCQNLYQLEGNKRITCRNGQWSEPPKCLHPCVISREIMENYNIALRWTAKQKLYLRTGESAEFVCKRGYRLSSRSHTLRTTCWDGKLEYPTCAKR
B9: Isoform 2 of C4b-binding protein beta chain (protein)
chain: ASDEHCPELPPVDNSIFVAKEVEGQILGTYVCIKGYHLVGKKTLFCNASKEWDNTTTECRLGHCPDPVLVNGEFSSSGPVNVSDKITFMCNDHYILKGSNRSQCLEDHTWAPPFPICKSRDCDPPGNPVHGYFEGNNFTLGSTISYYCEDRYYLVGVQEQQCVDGEWSSALPVCKLIQEAPKPECEKALLAFQESKNLCEAMENFMQQLKESGMTMEELKYSLELKKAELKAKLL

target: T1, alpha-synuclein plaque particles (Homo sapiens, UniProt P37840); assay: Mass spectroscopy proteomics, semi-quantitative binding affinity of serum proteins (plaqueproteome, Table 2); settings: higher number = stronger affinity
T1 construct: 140 amino acids polypeptide
Method in brief: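 AD-subject plasma or serum (800 μL of 50%) mixed with 30 μg preformed alpha-synuclein aggregates for 1 h at 37 °C; Thioflavin S-positive particles isolated by flow sorting. After reduction, acrylamide alkylation and overnight tryptic digestion, serum proteins identified by MS/MS with Sequest and Scaffold.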

Going from B1 to B2, the “Semi-quantitative analysis of proteins binding to different plaque particles: Synuclein” value rises from 0 to 3.

Going from B3 to B4, the “Semi-quantitative analysis of proteins binding to different plaque particles: Synuclein” value rises from 0 to 2.

Compared with B5, B6 is higher in “Semi-quantitative analysis of proteins binding to different plaque particles: Synuclein” value: 0 for the first, 2 for the second.

B7 and B8 are the same in “Semi-quantitative analysis of proteins binding to different plaque particles: Synuclein” value: 0 for the first, 0 for the second.

B9 was tested, and the “Semi-quantitative analysis of proteins binding to different plaque particles: Synuclein” value was 0.

system: Low density cholesterol (Chl small) plaque particles; assay: as above; design: species or system human; settings: higher number = stronger affinity
Method in brief: (§1)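 Serum or plasma from atherosclerotic subjects, diluted to 50% in PBS, was incubated with cholesterol aggregates (30 μg per 1 mL reaction) at 37° C for 1 hr. Small and large cholesterol plaque particles were sorted by flow cytometry gating, trypsin-digested and analysed by MS/MS against a human UniProt database.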

Going from B1 to B2, the “Semi-quantitative analysis of proteins binding to different plaque particles: Chl small” value rises from 1 to 20.

Compared with B3, B4 is higher in “Semi-quantitative analysis of proteins binding to different plaque particles: Chl small” value: 0 for the first, 1 for the second.

Going from B5 to B6, the “Semi-quantitative analysis of proteins binding to different plaque particles: Chl small” value rises from 0 to 1.

Going from B7 to B8, the “Semi-quantitative analysis of proteins binding to different plaque particles: Chl small” value rises from 0 to 1.

For B9, the “Semi-quantitative analysis of proteins binding to different plaque particles: Chl small” value was 1.

system: High Density cholesterol (Chl Large) plaque particles; assay: as above; design: species or system human; settings: higher number = stronger affinity
Method in brief: as §1

First: B1
Second: B2
The “Semi-quantitative analysis of proteins binding to different plaque particles: Chl Large” value of the first is lower: 0 for the first, 14 for the second.

Compared with B3, B4 is higher in “Semi-quantitative analysis of proteins binding to different plaque particles: Chl Large” value: 0 for the first, 1 for the second.

First: B5
Second: B6
The “Semi-quantitative analysis of proteins binding to different plaque particles: Chl Large” value of the first is higher: 1 for the first, 0 for the second.

First: B7
Second: B8
The “Semi-quantitative analysis of proteins binding to different plaque particles: Chl Large” value of the first is lower: 0 for the first, 2 for the second.

B9 was tested, and the “Semi-quantitative analysis of proteins binding to different plaque particles: Chl Large” value was 0.

system: Tau plaque particles; assay: as above; design: species or system human; settings: higher number = stronger affinity
Method in brief: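 Serum or plasma proteins captured on Thioflavin S-labelled Tau plaque particles (Tau-74, Tau-275 oligomers preformed in PBS at 37° C for 2 h; 1 h co-incubation at 37° C) were isolated by FACS sorting, then tryptically digested and identified by MS/MS (Sequest, human UniProt, strict trypsin).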

Going from B1 to B2, the “Semi-quantitative analysis of proteins binding to different plaque particles: Tau” value rises from 0 to 24.

Going from B3 to B4, the “Semi-quantitative analysis of proteins binding to different plaque particles: Tau” value rises from 0 to 1.

First: B5
Second: B6
The “Semi-quantitative analysis of proteins binding to different plaque particles: Tau” value of the first is lower: 0 for the first, 1 for the second.

First: B7
Second: B8
The “Semi-quantitative analysis of proteins binding to different plaque particles: Tau” value of the first is lower: 0 for the first, 1 for the second.

With B9 the “Semi-quantitative analysis of proteins binding to different plaque particles: Tau” value was 0.

target: T2, Abeta-42 plaque particles (Homo sapiens, UniProt P05067); assay: as above; settings: higher number = stronger affinity
T2 construct: Abeta 1-42
Method in brief: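 AD patient serum or plasma (50% in PBS) was incubated with Abeta-42 aggregates (30 μg) for 1 h at 37 °C, then stained with Thioflavin S for 30 min. Labeled particles were FACS-sorted, trypsin/Lys-C digested overnight and analyzed by MS/MS. Sequest searched human UniProt; Scaffold/Protein Prophet validated the identifications.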

Going from B1 to B2, the “Semi-quantitative analysis of proteins binding to different plaque particles: Abeta-42” value rises from 0 to 171.

B3 and B4 are the same in “Semi-quantitative analysis of proteins binding to different plaque particles: Abeta-42” value: 2 for the first, 2 for the second.

B5 and B6 are the same in “Semi-quantitative analysis of proteins binding to different plaque particles: Abeta-42” value: 0 for the first, 0 for the second.

Compared with B7, B8 is lower in “Semi-quantitative analysis of proteins binding to different plaque particles: Abeta-42” value: 2 for the first, 0 for the second.

With B9 the “Semi-quantitative analysis of proteins binding to different plaque particles: Abeta-42” value was 0.
